Assays:
[1] = target: T1, FcγRIIb extracellular domain with C-terminal His tag (human, UniProt P31994 43-217); assay: SPR (Biacore), relative binding, GpH7-A5/GpH7-B3/GpL16-k0 = 100
T1 construct: extracellular domain; also called 2b; FcgRIIb; not shown: His tag at the C terminus
T1 sequence (looked up): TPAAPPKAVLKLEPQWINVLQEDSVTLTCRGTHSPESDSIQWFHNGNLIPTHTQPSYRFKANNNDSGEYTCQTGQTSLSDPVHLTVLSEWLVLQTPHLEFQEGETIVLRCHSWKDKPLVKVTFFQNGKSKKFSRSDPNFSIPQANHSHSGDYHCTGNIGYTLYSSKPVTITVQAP
Experimental: (§1) Analysis of interaction between objective antibody and the FcγR was carried out using Biacore T100 (GE Healthcare). HBS-EP+ (GE Healthcare) was used as the running buffer, and the measurement temperature was set to 25° C. Chips produced by immobilizing the antigen peptide by the amine coupling method to a Series S Sencor Chip CM5 (GE Healthcare), or alternatively, chips produced by allowing preliminarily biotinylated antigen peptides to interact with and immobilize onto a Series S Sensor Chip SA (certified) (GE Healthcare) were used. Antibodies of interest were captured onto an antigen peptide-immobilized chip, and allowed to interact to each FcγR diluted with running buffer. To regenerate and repeatedly use the chip, the antibodies captured on the chip were washed off by reacting 10 mM glycine-HCl, pH 1.5.
(§2) The FcγR-binding activity of each antibody was assessed primarily using as an indicator the FcγR-binding activity and dissociation constant for FcγR.

[2] = target: T2, FcγRIIIa extracellular domain with C-terminal His tag (human, UniProt P08637 17-208); assay: as above
T2 construct: extracellular domain; also called 3a; FcgRIIIa; not shown: His tag at the C terminus
Experimental: as §1, §2

T2 sequence (P08637 17-208): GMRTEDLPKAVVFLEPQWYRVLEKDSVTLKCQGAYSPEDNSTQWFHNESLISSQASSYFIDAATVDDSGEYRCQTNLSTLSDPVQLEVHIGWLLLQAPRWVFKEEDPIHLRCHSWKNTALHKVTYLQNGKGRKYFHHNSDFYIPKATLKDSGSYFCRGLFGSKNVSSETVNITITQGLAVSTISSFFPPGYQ

B1: GpH7-A5/GpH7-B3 variant D265_13S/GpL16-k0 (antibody, human IgG1, kappa)
heavy 1: not shown
heavy 2: not shown
light: DIVMTQSPLSLPVTPGEPASISCQASESLVHSNRNTYLHWYLQKPGQSPQLLIYKVSNRFSGVPDRFSGSGSGTDFTLKISRVEAEDVGVYYCSQNTHVPPTFGQGTKVEIERTVAAPSVFIFPPSDEQLKSGTASVVCLLNNFYPREAKVQWKVDNALQSGNSQESVTEQDSKDSTYSLSSTLTLSKADYEKHKVYACEVTHQGLSSPVTKSFNRGEC
notes: He Ab: mutation in the GpH7-B3 H chain only; also called He Ab
He/Con_2b [1]: 11.3 % of control | He/Con_3a [2]: 3.9 % of control

B2: GpH7-A5/GpH7-B3 variant D265_20W/GpL16-k0 (antibody, human IgG1, kappa)
heavy 1: not shown
heavy 2: not shown
light: DIVMTQSPLSLPVTPGEPASISCQASESLVHSNRNTYLHWYLQKPGQSPQLLIYKVSNRFSGVPDRFSGSGSGTDFTLKISRVEAEDVGVYYCSQNTHVPPTFGQGTKVEIERTVAAPSVFIFPPSDEQLKSGTASVVCLLNNFYPREAKVQWKVDNALQSGNSQESVTEQDSKDSTYSLSSTLTLSKADYEKHKVYACEVTHQGLSSPVTKSFNRGEC
notes: as for B1
He/Con_2b [1]: 1.1 % of control | He/Con_3a [2]: -0.5 % of control

B3: GpH7-A5/GpH7-B3 variant L328_09D/GpL16-k0 (antibody, human IgG1, kappa)
heavy 1: not shown
heavy 2: not shown
light: DIVMTQSPLSLPVTPGEPASISCQASESLVHSNRNTYLHWYLQKPGQSPQLLIYKVSNRFSGVPDRFSGSGSGTDFTLKISRVEAEDVGVYYCSQNTHVPPTFGQGTKVEIERTVAAPSVFIFPPSDEQLKSGTASVVCLLNNFYPREAKVQWKVDNALQSGNSQESVTEQDSKDSTYSLSSTLTLSKADYEKHKVYACEVTHQGLSSPVTKSFNRGEC
notes: as for B1
He/Con_2b [1]: 199 % of control | He/Con_3a [2]: 47.8 % of control

B4: GpH7-A5/GpH7-B3 variant L328_15Y/GpL16-k0 (antibody, human IgG1, kappa)
heavy 1: not shown
heavy 2: not shown
light: DIVMTQSPLSLPVTPGEPASISCQASESLVHSNRNTYLHWYLQKPGQSPQLLIYKVSNRFSGVPDRFSGSGSGTDFTLKISRVEAEDVGVYYCSQNTHVPPTFGQGTKVEIERTVAAPSVFIFPPSDEQLKSGTASVVCLLNNFYPREAKVQWKVDNALQSGNSQESVTEQDSKDSTYSLSSTLTLSKADYEKHKVYACEVTHQGLSSPVTKSFNRGEC
notes: as for B1
He/Con_2b [1]: 193 % of control | He/Con_3a [2]: 68.3 % of control

B5: GpH7-A5/GpH7-B3 variant L328_14T/GpL16-k0 (antibody, human IgG1, kappa)
heavy 1: not shown
heavy 2: not shown
light: DIVMTQSPLSLPVTPGEPASISCQASESLVHSNRNTYLHWYLQKPGQSPQLLIYKVSNRFSGVPDRFSGSGSGTDFTLKISRVEAEDVGVYYCSQNTHVPPTFGQGTKVEIERTVAAPSVFIFPPSDEQLKSGTASVVCLLNNFYPREAKVQWKVDNALQSGNSQESVTEQDSKDSTYSLSSTLTLSKADYEKHKVYACEVTHQGLSSPVTKSFNRGEC
notes: as for B1
He/Con_2b [1]: 141 % of control | He/Con_3a [2]: 75.3 % of control

B6: GpH7-A5/GpH7-B3 variant L328_02A/GpL16-k0 (antibody, human IgG1, kappa)
heavy 1: not shown
heavy 2: not shown
light: DIVMTQSPLSLPVTPGEPASISCQASESLVHSNRNTYLHWYLQKPGQSPQLLIYKVSNRFSGVPDRFSGSGSGTDFTLKISRVEAEDVGVYYCSQNTHVPPTFGQGTKVEIERTVAAPSVFIFPPSDEQLKSGTASVVCLLNNFYPREAKVQWKVDNALQSGNSQESVTEQDSKDSTYSLSSTLTLSKADYEKHKVYACEVTHQGLSSPVTKSFNRGEC
notes: as for B1
He/Con_2b [1]: 144 % of control | He/Con_3a [2]: 79.1 % of control

B7: GpH7-A5/GpH7-B3 variant D265_18N/GpL16-k0 (antibody, human IgG1, kappa)
heavy 1: not shown
heavy 2: not shown
light: DIVMTQSPLSLPVTPGEPASISCQASESLVHSNRNTYLHWYLQKPGQSPQLLIYKVSNRFSGVPDRFSGSGSGTDFTLKISRVEAEDVGVYYCSQNTHVPPTFGQGTKVEIERTVAAPSVFIFPPSDEQLKSGTASVVCLLNNFYPREAKVQWKVDNALQSGNSQESVTEQDSKDSTYSLSSTLTLSKADYEKHKVYACEVTHQGLSSPVTKSFNRGEC
notes: as for B1
He/Con_2b [1]: 6.1 % of control | He/Con_3a [2]: 4.6 % of control

B8: GpH7-A5/GpH7-B3 variant L328_13S/GpL16-k0 (antibody, human IgG1, kappa)
heavy 1: not shown
heavy 2: not shown
light: DIVMTQSPLSLPVTPGEPASISCQASESLVHSNRNTYLHWYLQKPGQSPQLLIYKVSNRFSGVPDRFSGSGSGTDFTLKISRVEAEDVGVYYCSQNTHVPPTFGQGTKVEIERTVAAPSVFIFPPSDEQLKSGTASVVCLLNNFYPREAKVQWKVDNALQSGNSQESVTEQDSKDSTYSLSSTLTLSKADYEKHKVYACEVTHQGLSSPVTKSFNRGEC
notes: as for B1
He/Con_2b [1]: 149 % of control | He/Con_3a [2]: 71.7 % of control

B9: GpH7-A5/GpH7-B3 variant L328_07I/GpL16-k0 (antibody, human IgG1, kappa)
heavy 1: not shown
heavy 2: not shown
light: DIVMTQSPLSLPVTPGEPASISCQASESLVHSNRNTYLHWYLQKPGQSPQLLIYKVSNRFSGVPDRFSGSGSGTDFTLKISRVEAEDVGVYYCSQNTHVPPTFGQGTKVEIERTVAAPSVFIFPPSDEQLKSGTASVVCLLNNFYPREAKVQWKVDNALQSGNSQESVTEQDSKDSTYSLSSTLTLSKADYEKHKVYACEVTHQGLSSPVTKSFNRGEC
notes: as for B1
He/Con_2b [1]: 160 % of control | He/Con_3a [2]: 84 % of control
